These results are taken from patent EP1417974A1.

The target of this assay is CD44v6 on antigen-positive FaDu cells (human) (UniProt P16070). Kind of assay: flow cytometry (FACS) on antigen-positive FaDu cells, FITC-labeled anti-human IgG detection, on ice.
Chain of UniProt P16070 (P16070 21-742): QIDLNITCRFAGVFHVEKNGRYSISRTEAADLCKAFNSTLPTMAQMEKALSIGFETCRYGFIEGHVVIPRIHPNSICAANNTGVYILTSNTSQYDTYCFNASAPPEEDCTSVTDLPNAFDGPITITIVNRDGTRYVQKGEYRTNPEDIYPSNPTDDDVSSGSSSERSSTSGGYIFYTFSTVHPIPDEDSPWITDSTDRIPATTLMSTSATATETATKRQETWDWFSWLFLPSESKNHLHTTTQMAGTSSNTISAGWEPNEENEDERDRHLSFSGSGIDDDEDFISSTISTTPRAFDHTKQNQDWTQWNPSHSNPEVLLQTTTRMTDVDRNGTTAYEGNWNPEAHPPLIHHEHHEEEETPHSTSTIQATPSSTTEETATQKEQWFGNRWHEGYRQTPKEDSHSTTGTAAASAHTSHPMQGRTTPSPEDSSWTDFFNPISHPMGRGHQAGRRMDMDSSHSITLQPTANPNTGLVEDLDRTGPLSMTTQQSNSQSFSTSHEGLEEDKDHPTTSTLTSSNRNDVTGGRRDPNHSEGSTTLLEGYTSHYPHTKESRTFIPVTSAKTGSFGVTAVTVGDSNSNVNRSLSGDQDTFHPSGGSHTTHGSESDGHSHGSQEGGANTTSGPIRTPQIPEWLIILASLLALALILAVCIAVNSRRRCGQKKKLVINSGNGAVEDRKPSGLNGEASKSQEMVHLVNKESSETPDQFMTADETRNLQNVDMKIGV

As usually defined, the Kd is the equilibrium constant for the complex coming apart. A higher Kd goes with a looser complex. In the case of BIWI 1 (from UniProt P0DOX5 2-449), the Kd turned out to be 1.8 nM.

B1: BIWA 4 (antibody, human IgG1, kappa, V domains shown)
VH: EVQLVESGGGLVKPGGSLRLSCAASGFTFSSYDMSWVRQAPGKGLEWVSTISSGGSYTYYLDSIKGRFTISRDNAKNSLYLQMNSLRAEDTAVYYCARQGLDYWGRGTLVTVSS
VL: EIVLTQSPATLSLSPGERATLSCSASSSINYIYWYQQKPGQAPRLLIYLTSNLASGVPARFSGSGSGTDFTLTISSLEPEDFAVYYCLQWSSNPLTFGGGTKVEIKR
With B1, the Kd is 1 nM.
